Data: the supplement of paper PMC10724198
± gives the standard deviation of the averaged measurements.

test system: Saccharomyces cerevisiae; experiment: protein stability index of tFT-peptide fusion (C-terminal peptide) (PSI (0-1 scale)); higher = more stable (slower turnover); settings: genetic background: wild type; temperature: 30 C
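Note: PSI is a weighted mean of sequencing reads over stability bins, variants kept only with over 10 reads, mCherry proximal and sfGFP distal, peptide attached via GGGS linker.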

| Sequence | protein stability index |
| --- | --- |
| RTTAGINAFPGV | 0.6184 ± 0.0051 |
| RTTSFVLSYRRE | 0.66 ± 0.019 |
| RTWDNTRDLDEL | 0.656 ± 0.019 |
| RVCCGVKDSEES | 0.619 ± 0.0062 |
| RVCFSLGAEFSF | 0.665 ± 0.055 |
| RVCVERFDSLTL | 0.733 ± 0.08 |
| RVDAWLEGKTVR | 0.734 ± 0.02 |
| RVGAVCWSIGLL | 0.68 ± 0.03 |
| RVGWCGGGRGGR | 0.658 ± 0.048 |
| RVGWCPCTGDRR | 0.663 ± 0.019 |
| RVHRSVVGYRRC | 0.611 ± 0.025 |
| RVKMEFGRYRIF | 0.52266 ± 0.0005 |
| RVKRTGLGVWGF | 0.649 ± 0.033 |
| RVLCLCATSKSR | 0.672 ± 0.016 |
| RVPGGLPCRPSL | 0.775 ± 0.041 |
| RVQLPSRITQKA | 0.596 ± 0.023 |
| RVQMTTHGCLIS | 0.766 ± 0.15 |
| RVRLSLDSPLGL | 0.684 ± 0.044 |
| RVVHKIFGRRVT | 0.6873 ± 0.0049 |
| RVWNRHWMGASS | 0.776 ± 0.084 |
| RVWSMYCSEANG | 0.666 ± 0.017 |
| RVWYNVGEGPVR | 0.699 ± 0.0085 |
| RWAQVAEGGEGR | 0.732 ± 0.099 |

| Sequence | protein stability index |
| --- | --- |
| RWARGGSRGGGG | 0.703 ± 0.044 |
| RWCEWYDMNTII | 0.636 ± 0.02 |
| RWGVFRSLPSPS | 0.622 ± 0.17 |
| RWGVGGSVSFWW | 0.7 ± 0.047 |
| RWGVRGAIHSDL | 0.6841 ± 0.0065 |
| RWSVIHARLLSP | 0.846 ± 0.19 |
| RWSYCLVFSLGL | 0.532 ± 0.015 |
| RWTLMMAIIRQR | 0.559 ± 0.024 |
| RWWGDEAHRDGA | 0.81 ± 0.049 |
| RYANGVLHIGSN | 0.659 ± 0.042 |
| RYCIRDNKSNRN | 0.705 ± 0.051 |
| RYENRGRMKRER | 0.676 ± 0.042 |
| RYKCSQWHNGLT | 0.767 ± 0.048 |
| RYKSVPLHCISN | 0.671 ± 0.022 |
| RYNPPRGIHNDL | 0.651 ± 0.043 |
| RYPSRGQFGPSP | 0.691 ± 0.019 |
| RYRGPIPHEHTC | 0.652 ± 0.085 |
| RYSLMRAVRDRL | 0.775 ± 0.17 |
| SAASLWSGFRYG | 0.68 ± 0.0085 |
| SACAPSPPSPSP | 0.749 ± 0.015 |
| SACRSVPGYVAG | 0.672 ± 0.046 |
| SAFLSFLRLVFL | 0.632 ± 0.011 |
| SAFLSFPFLSPF | 0.705 ± 0.011 |

| Sequence | protein stability index |
| --- | --- |
| SAGIRPFIQVHI | 0.653 ± 0.019 |
| SAGLLFFSFPPL | 0.7873 ± 0.0067 |
| SAGYFYSWNSSD | 0.708 ± 0.028 |
| SAIALGCEGVYP | 0.6853 ± 0.0012 |
| SAMIKRIIGMHY | 0.634 ± 0.048 |
| SANSGVRHMHFW | 0.729 ± 0.058 |
| SAPAFPPRPPPT | 0.675 ± 0.025 |
| SAPEPTISKLLP | 0.603 ± 0.027 |
| SAPPLPLSPPPS | 0.739 ± 0.076 |
| SAPRPPPLPPSP | 0.68 ± 0.068 |
| SARECSVRTPHN | 0.711 ± 0.061 |
| SASPLRPPFLLL | 0.635 ± 0.09 |
| SATDARPPMKSP | 0.735 ± 0.069 |
| SCEIDKMYLPLR | 0.701 ± 0.031 |
| SCFTSLLGRRDG | 0.784 ± 0.12 |
| SCGCCGVLFQGV | 0.846 ± 0.2 |
| SCGKGVGRWRLG | 0.6721 ± 0.0029 |
| SCHVRPPVPRPS | 0.663 ± 0.018 |
| SCLALLSLLIDF | 0.57 ± 0.021 |
| SCNLYVGQVKSG | 0.649 ± 0.036 |
| SCPQSSLASVYA | 0.529 ± 0.029 |
| SCPRASSSSLTA | 0.671 ± 0.07 |
| SCRAIIDCMYNT | 0.611 ± 0.067 |

| Sequence | protein stability index |
| --- | --- |
| SCSDPPSPLPLS | 0.686 ± 0.0088 |
| SCSGVHYLGSSL | 0.679 ± 0.023 |
| SCVWVLPLGFLR | 0.575 ± 0.058 |
| SDCWGAIIGCSG | 0.677 ± 0.027 |
| SDPGRLVLKIRR | 0.715 ± 0.014 |
| SDSIVTGCLKYP | 0.696 ± 0.014 |
| SEARCVGSVWGG | 0.757 ± 0.098 |
| SEKGPRRSRVWD | 0.745 ± 0.046 |
| SEKILCTGECAA | 0.619 ± 0.07 |
| SEKIRDQQPTPA | 0.671 ± 0.044 |
| SEKRIGAGKDSE | 0.688 ± 0.011 |
| SENNLKHEKVIE | 0.735 ± 0.22 |
| SERERYKKNEKV | 0.643 ± 0.0017 |
| SEVISMSDDLGR | 0.633 ± 0.087 |
| SFASLSFDTASF | 0.675 ± 0.0086 |
| SFCCISSFPCWR | 0.751 ± 0.016 |
| SFDFRKGDPTSD | 0.667 ± 0.02 |
| SFGGGLIGAGVT | 0.698 ± 0.082 |
| SFHCFFTTSWYS | 0.701 ± 0.11 |
| SFLSLLLLSSSR | 0.7 ± 0.012 |
| SFMYCDLLLFGS | 0.59 ± 0.068 |
| SFPLLFPVSSRL | 0.8641 ± 0.0077 |
| SFPLSPPSLPSL | 0.781 ± 0.1 |

| Sequence | protein stability index |
| --- | --- |
| SFPPLCLSFPVF | 0.65 ± 0.02 |
| SFPYPCFPPPPF | 0.78 ± 0.056 |
| SFSLPPSSSPPT | 0.725 ± 0.1 |
| SFSPNRAVSFST | 0.727 ± 0.082 |
| SFSPSIHLLSTL | 0.677 ± 0.045 |
| SFTFSFWRFSPR | 0.676 ± 0.019 |
| SFTYVFFSLSRR | 0.663 ± 0.019 |
| SFVFRLGEVGSS | 0.603 ± 0.12 |
| SFVFVCDGGSRG | 0.669 ± 0.017 |
| SFVVAVALGRLR | 0.5734 ± 0.003 |
| SFVVFGSFFCFC | 0.572 ± 0.018 |
| SGAATSRRGLCS | 0.672 ± 0.013 |
| SGAGAMPPCSLP | 0.697 ± 0.029 |
| SGCGGKFGCALR | 0.74 ± 0.045 |
| SGCRLGCASVVQ | 0.611 ± 0.044 |
| SGGGAGKRVCEG | 0.704 ± 0.015 |
| SGGGELGATSGG | 0.691 ± 0.031 |
| SGGGGGGQVAVG | 0.739 ± 0.1 |
| SGGISGCPPPVF | 0.689 ± 0.036 |
| SGGRTSRREGGR | 0.643 ± 0.075 |
| SGGSKAGGVVRI | 0.63 ± 0.039 |
| SGIIVSPAVDMY | 0.667 ± 0.0067 |
| SGIKGENKIKEK | 0.681 ± 0.0097 |

| Sequence | protein stability index |
| --- | --- |
| SGILRSLAYPPD | 0.6142 ± 0.0035 |
| SGKFGACVDRGI | 0.7236 ± 0.00012 |
| SGLRPGAGDCSA | 0.611 ± 0.07 |
| SGPSSIGSSCMS | 0.663 ± 0.023 |
| SGQVFADGSYAD | 0.699 ± 0.015 |
| SGRAALARVSPT | 0.694 ± 0.028 |
| SGRCGGESNDAE | 0.626 ± 0.012 |
| SGRPALSRARRG | 0.668 ± 0.015 |
| SGRYNIKPEERE | 0.634 ± 0.022 |
| SGSLFVRIGGMG | 0.754 ± 0.094 |
| SGVDVPCSCHYL | 0.732 ± 0.013 |
| SGVTISYQEGLR | 0.677 ± 0.0091 |
| SGVVIDDSLKEE | 0.683 ± 0.0092 |
| SGVVLVRCEGRR | 0.754 ± 0.15 |
| SGWVVECPRECW | 0.719 ± 0.024 |
| SHALSFSFSLLP | 0.6367 ± 0.0052 |
| SHGEDTACNWGL | 0.714 ± 0.018 |
| SHPHLSSPPSRP | 0.678 ± 0.055 |
| SHPLFLPALSPP | 0.721 ± 0.061 |
| SHQTTKQKKKNL | 0.624 ± 0.013 |
| SHSLPHLSGPPR | 0.698 ± 0.056 |
| SHTLIRRGTHFP | 0.683 ± 0.0094 |
| SHTVVFRVCTGS | 0.631 ± 0.087 |

| Sequence | protein stability index |
| --- | --- |
| SHVPLPRAHSPP | 0.6702 ± 0.0034 |
| SHVVRHVSTVEK | 0.7 ± 0.023 |
| SICRERRLSFYL | 0.728 ± 0.052 |
| SIECSLCYSLFD | 0.663 ± 0.032 |
| SIERNEGRKKLG | 0.708 ± 0.064 |
| SIFPLSLLLPLP | 0.758 ± 0.05 |
| SIHITGTLSRTA | 0.751 ± 0.065 |
| SIIRWSKRTEES | 0.695 ± 0.049 |
| SIKKKQKIKLTK | 0.689 ± 0.02 |
| SIRPVRLSWVRL | 0.632 ± 0.0066 |
| SIRQDSLMVWGG | 0.666 ± 0.097 |
| SISANPGAPHFP | 0.666 ± 0.022 |
| SISGTSKDSASC | 0.6677 ± 0.0028 |
| SISRPSEHHLTQ | 0.673 ± 0.023 |
| SIVLRNRSGDIL | 0.63 ± 0.061 |
| SIVPIIPDSVPP | 0.676 ± 0.048 |
| SKEERRKGSKKI | 0.686 ± 0.054 |
| SKKRKKNNAKTK | 0.713 ± 0.01 |
| SKLRDFHVLVTH | 0.611 ± 0.011 |
| SLAFGPTAFLPT | 0.6818 ± 0.0038 |
| SLAGGSSAPSAS | 0.673 ± 0.013 |
| SLALSAGFSIYL | 0.6693 ± 0.0062 |
